T1: MPP2, Q14168
T1 sequence (Q14168 180-250, limits assumed, looked up): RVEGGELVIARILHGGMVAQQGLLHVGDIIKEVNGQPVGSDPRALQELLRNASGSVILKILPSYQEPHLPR

T2: LIN7B, Q9HAP6
T2 sequence (Q9HAP6 88-185, limits assumed, looked up): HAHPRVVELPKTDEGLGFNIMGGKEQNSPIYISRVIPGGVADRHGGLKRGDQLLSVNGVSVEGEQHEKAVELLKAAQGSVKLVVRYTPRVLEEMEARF

T3: RADIL, Q96JH8
T3 sequence (Q96JH8 971-1071, limits assumed, looked up): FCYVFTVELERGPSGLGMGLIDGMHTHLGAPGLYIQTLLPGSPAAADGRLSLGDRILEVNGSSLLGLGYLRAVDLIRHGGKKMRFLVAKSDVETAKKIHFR

T4: TIAM2, Q8IVF5
T4 sequence (Q8IVF5 885-986, limits assumed, looked up): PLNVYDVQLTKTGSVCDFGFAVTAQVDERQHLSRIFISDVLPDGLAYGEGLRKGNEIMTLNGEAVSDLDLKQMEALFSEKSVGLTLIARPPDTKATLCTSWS

T5: ARHGEF11, O15085
T5 sequence (O15085 42-136, limits assumed, looked up): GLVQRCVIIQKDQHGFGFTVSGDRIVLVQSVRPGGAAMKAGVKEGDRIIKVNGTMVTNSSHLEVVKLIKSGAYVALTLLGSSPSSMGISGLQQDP

T6: LNX2_2, Q8N448
T6 sequence (Q8N448 334-432, limits assumed, looked up): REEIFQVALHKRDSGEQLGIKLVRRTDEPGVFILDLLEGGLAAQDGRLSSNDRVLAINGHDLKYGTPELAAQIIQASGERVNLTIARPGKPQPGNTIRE

T7: GRIP1_5, Q9Y3R0
T7 sequence (Q9Y3R0 568-668, limits assumed, looked up): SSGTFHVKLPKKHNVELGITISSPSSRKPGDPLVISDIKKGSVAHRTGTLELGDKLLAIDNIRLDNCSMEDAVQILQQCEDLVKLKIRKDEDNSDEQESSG

T8: DLG3_3, Q92796
T8 sequence (Q92796 374-475, limits assumed, looked up): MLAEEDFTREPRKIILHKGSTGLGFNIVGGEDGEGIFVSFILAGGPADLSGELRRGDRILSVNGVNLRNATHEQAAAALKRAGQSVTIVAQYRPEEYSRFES

T9: LNX2_3, Q8N448
T9 sequence (Q8N448 463-564, limits assumed, looked up): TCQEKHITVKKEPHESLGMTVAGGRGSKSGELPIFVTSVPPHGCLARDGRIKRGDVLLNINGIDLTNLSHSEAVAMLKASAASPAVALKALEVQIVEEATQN

T10: DVL3, Q92997
T10 sequence (Q92997 244-331, limits assumed, looked up): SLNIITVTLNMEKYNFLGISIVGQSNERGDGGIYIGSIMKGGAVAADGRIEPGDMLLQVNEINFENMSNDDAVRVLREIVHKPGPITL

T11: GRIP1_4, Q9Y3R0
T11 sequence (Q9Y3R0 467-571, limits assumed, looked up): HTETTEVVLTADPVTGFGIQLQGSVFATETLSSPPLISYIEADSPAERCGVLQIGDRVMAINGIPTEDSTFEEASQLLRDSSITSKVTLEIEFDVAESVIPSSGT

T12: NHERF3_1, Q5T2W1
T12 sequence (Q5T2W1 4-100, limits assumed, looked up): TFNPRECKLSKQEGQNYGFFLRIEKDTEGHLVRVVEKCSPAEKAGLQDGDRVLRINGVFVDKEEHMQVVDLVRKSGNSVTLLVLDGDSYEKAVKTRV

B1: ZNF599, Q96NL3 (peptide)
chain: THHRKIHTRV

target: Inadl_2, Q8NI35; experiment: holdup assay; set-up: key: below the threshold = too weak to quantify, mostly under pKd 3.1 to 4; conditions: plain residues with an end cap or a label only (N-terminal biotin on a linker: ado-ado)
Sequence (Q8NI35 238-335): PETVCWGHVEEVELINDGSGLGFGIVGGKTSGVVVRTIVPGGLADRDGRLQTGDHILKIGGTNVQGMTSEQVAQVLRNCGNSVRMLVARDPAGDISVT

Question: With B1 as the binder, how does the pKd read?
Answer: Its pKd is “below the threshold”.

target: GRIP2_5, Q9C0E4; experiment: holdup assay; set-up: key: below the threshold = too weak to quantify, mostly under pKd 3.1 to 4; conditions: plain residues with an end cap or a label only (N-terminal biotin on a linker: ado-ado)
Sequence (Q9C0E4 544-642): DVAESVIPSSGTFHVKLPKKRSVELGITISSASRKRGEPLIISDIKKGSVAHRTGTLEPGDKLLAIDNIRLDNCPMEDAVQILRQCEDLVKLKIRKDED

Question: How did the pKd turn out when B1 was run?
Answer: The pKd was 3.48.

target: T1, MPP2, Q14168; experiment: holdup assay; set-up: key: below the threshold = too weak to quantify, mostly under pKd 3.1 to 4; conditions: plain residues with an end cap or a label only (N-terminal biotin on a linker: ado-ado)

Question: How did the pKd turn out when B1 was run?
Answer: The pKd was “below the threshold”.

target: NOS1, P29475; experiment: holdup assay; set-up: key: below the threshold = too weak to quantify, mostly under pKd 3.1 to 4; conditions: plain residues with an end cap or a label only (N-terminal biotin on a linker: ado-ado)
Sequence (P29475 9-101): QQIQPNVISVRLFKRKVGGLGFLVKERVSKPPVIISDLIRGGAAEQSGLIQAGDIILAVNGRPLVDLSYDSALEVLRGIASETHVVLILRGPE

Question: How did the pKd turn out when B1 was run?
Answer: The pKd was 4.02.

target: PARD3_3, Q8TEW0; experiment: holdup assay; set-up: key: below the threshold = too weak to quantify, mostly under pKd 3.1 to 4; conditions: plain residues with an end cap or a label only (N-terminal biotin on a linker: ado-ado)
Sequence (Q8TEW0 582-685): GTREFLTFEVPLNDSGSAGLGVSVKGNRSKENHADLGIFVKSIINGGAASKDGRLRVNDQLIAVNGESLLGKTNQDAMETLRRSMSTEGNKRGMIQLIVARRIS

Question: For B1, which pKd is on record?
Answer: The pKd was “below the threshold”.

target: IL16_4, Q14005; experiment: holdup assay; set-up: key: below the threshold = too weak to quantify, mostly under pKd 3.1 to 4; conditions: plain residues with an end cap or a label only (N-terminal biotin on a linker: ado-ado)
Sequence (Q14005 1229-1329): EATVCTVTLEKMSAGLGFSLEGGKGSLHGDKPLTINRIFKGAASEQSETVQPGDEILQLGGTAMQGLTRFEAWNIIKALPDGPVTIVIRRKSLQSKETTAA

Question: B1 was tested. Which pKd did it give?
Answer: Its pKd is “below the threshold”.

target: MAGI2_2, Q86UL8; experiment: holdup assay; set-up: key: below the threshold = too weak to quantify, mostly under pKd 3.1 to 4; conditions: plain residues with an end cap or a label only (N-terminal biotin on a linker: ado-ado)
Sequence (Q86UL8 410-522): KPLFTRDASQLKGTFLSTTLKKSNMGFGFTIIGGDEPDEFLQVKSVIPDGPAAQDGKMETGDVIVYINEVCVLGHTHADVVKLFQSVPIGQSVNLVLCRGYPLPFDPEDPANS

Question: With B1 as the binder, how does the pKd read?
Answer: The pKd was 5.78.

target: FRMPD4, Q14CM0; experiment: holdup assay; set-up: key: below the threshold = too weak to quantify, mostly under pKd 3.1 to 4; conditions: plain residues with an end cap or a label only (N-terminal biotin on a linker: ado-ado)
Sequence (Q14CM0 67-160): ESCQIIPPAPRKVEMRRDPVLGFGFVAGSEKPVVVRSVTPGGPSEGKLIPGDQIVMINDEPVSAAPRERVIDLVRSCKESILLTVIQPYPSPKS

Question: B1 was tested. Which pKd did it give?
Answer: The pKd was “below the threshold”.

target: T2, LIN7B, Q9HAP6; experiment: holdup assay; set-up: key: below the threshold = too weak to quantify, mostly under pKd 3.1 to 4; conditions: plain residues with an end cap or a label only (N-terminal biotin on a linker: ado-ado)

Question: Which pKd does the source give for B1 here?
Answer: The pKd was “below the threshold”.

target: T3, RADIL, Q96JH8; experiment: holdup assay; set-up: key: below the threshold = too weak to quantify, mostly under pKd 3.1 to 4; conditions: plain residues with an end cap or a label only (N-terminal biotin on a linker: ado-ado)

Question: How did the pKd turn out when B1 was run?
Answer: The pKd was 3.62.

target: MAST2, Q6P0Q8; experiment: holdup assay; set-up: key: below the threshold = too weak to quantify, mostly under pKd 3.1 to 4; conditions: plain residues with an end cap or a label only (N-terminal biotin on a linker: ado-ado)
Sequence (Q6P0Q8 1099-1202): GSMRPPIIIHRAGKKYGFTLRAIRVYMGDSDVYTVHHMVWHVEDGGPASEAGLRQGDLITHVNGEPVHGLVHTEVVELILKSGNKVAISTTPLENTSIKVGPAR

Question: Which pKd does the source give for B1 here?
Answer: Its pKd is 5.03.

target: IL16_3, Q14005; experiment: holdup assay; set-up: key: below the threshold = too weak to quantify, mostly under pKd 3.1 to 4; conditions: plain residues with an end cap or a label only (N-terminal biotin on a linker: ado-ado)
Sequence (Q14005 1107-1207): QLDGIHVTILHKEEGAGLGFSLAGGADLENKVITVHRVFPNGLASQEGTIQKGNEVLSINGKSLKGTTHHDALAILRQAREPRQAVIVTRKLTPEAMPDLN

Question: B1 was tested. Which pKd did it give?
Answer: The pKd was “below the threshold”.

target: LAP2, Q96RT1; experiment: holdup assay; set-up: key: below the threshold = too weak to quantify, mostly under pKd 3.1 to 4; conditions: plain residues with an end cap or a label only (N-terminal biotin on a linker: ado-ado)
Sequence (Q96RT1 other isoform, or with tags, fused parts or gaps): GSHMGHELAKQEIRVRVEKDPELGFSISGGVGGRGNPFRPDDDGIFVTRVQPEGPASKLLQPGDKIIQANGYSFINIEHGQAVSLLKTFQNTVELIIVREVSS

Question: Which pKd does the source give for B1 here?
Answer: Its pKd is “below the threshold”.

target: T4, TIAM2, Q8IVF5; experiment: holdup assay; set-up: key: below the threshold = too weak to quantify, mostly under pKd 3.1 to 4; conditions: plain residues with an end cap or a label only (N-terminal biotin on a linker: ado-ado)

Question: Which pKd does the source give for B1 here?
Answer: The pKd was 3.57.

target: T5, ARHGEF11, O15085; experiment: holdup assay; set-up: key: below the threshold = too weak to quantify, mostly under pKd 3.1 to 4; conditions: plain residues with an end cap or a label only (N-terminal biotin on a linker: ado-ado)

Question: For B1, which pKd is on record?
Answer: The pKd was 4.25.

target: T6, LNX2_2, Q8N448; experiment: holdup assay; set-up: key: below the threshold = too weak to quantify, mostly under pKd 3.1 to 4; conditions: plain residues with an end cap or a label only (N-terminal biotin on a linker: ado-ado)

Question: For B1, which pKd is on record?
Answer: The pKd was 3.82.

target: T7, GRIP1_5, Q9Y3R0; experiment: holdup assay; set-up: key: below the threshold = too weak to quantify, mostly under pKd 3.1 to 4; conditions: plain residues with an end cap or a label only (N-terminal biotin on a linker: ado-ado)

Question: For B1, which pKd is on record?
Answer: The pKd was “below the threshold”.

target: T8, DLG3_3, Q92796; experiment: holdup assay; set-up: key: below the threshold = too weak to quantify, mostly under pKd 3.1 to 4; conditions: plain residues with an end cap or a label only (N-terminal biotin on a linker: ado-ado)

Question: How did the pKd turn out when B1 was run?
Answer: Its pKd is 4.43.

target: SNX27, Q96L92; experiment: holdup assay; set-up: key: below the threshold = too weak to quantify, mostly under pKd 3.1 to 4; conditions: plain residues with an end cap or a label only (N-terminal biotin on a linker: ado-ado)

Question: B1 was tested. Which pKd did it give?
Answer: Its pKd is 4.31.

target: GIPC2, Q8TF65; experiment: holdup assay; set-up: key: below the threshold = too weak to quantify, mostly under pKd 3.1 to 4; conditions: plain residues with an end cap or a label only (N-terminal biotin on a linker: ado-ado)
Sequence (Q8TF65 112-203): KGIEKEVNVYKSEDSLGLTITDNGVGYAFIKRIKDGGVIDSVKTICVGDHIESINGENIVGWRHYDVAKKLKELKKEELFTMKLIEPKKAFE

Question: How did the pKd turn out when B1 was run?
Answer: The pKd was 3.56.

target: T9, LNX2_3, Q8N448; experiment: holdup assay; set-up: key: below the threshold = too weak to quantify, mostly under pKd 3.1 to 4; conditions: plain residues with an end cap or a label only (N-terminal biotin on a linker: ado-ado)

Question: With B1 as the binder, how does the pKd read?
Answer: The pKd was 3.51.

target: T10, DVL3, Q92997; experiment: holdup assay; set-up: key: below the threshold = too weak to quantify, mostly under pKd 3.1 to 4; conditions: plain residues with an end cap or a label only (N-terminal biotin on a linker: ado-ado)

Question: B1 was tested. Which pKd did it give?
Answer: Its pKd is “below the threshold”.

target: TJP2_1, Q9UDY2; experiment: holdup assay; set-up: key: below the threshold = too weak to quantify, mostly under pKd 3.1 to 4; conditions: plain residues with an end cap or a label only (N-terminal biotin on a linker: ado-ado)
Sequence (Q9UDY2 24-128): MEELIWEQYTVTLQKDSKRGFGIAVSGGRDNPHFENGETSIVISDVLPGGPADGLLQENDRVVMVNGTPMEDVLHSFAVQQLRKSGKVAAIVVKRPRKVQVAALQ

Question: With B1 as the binder, how does the pKd read?
Answer: The pKd was 4.6.

target: DLG1_2, Q12959; experiment: holdup assay; set-up: key: below the threshold = too weak to quantify, mostly under pKd 3.1 to 4; conditions: plain residues with an end cap or a label only (N-terminal biotin on a linker: ado-ado)
Sequence (Q12959 314-412): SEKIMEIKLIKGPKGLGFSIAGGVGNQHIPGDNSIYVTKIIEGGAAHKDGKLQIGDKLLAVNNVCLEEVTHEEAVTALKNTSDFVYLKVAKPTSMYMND

Question: For B1, which pKd is on record?
Answer: The pKd was 5.53.

target: T11, GRIP1_4, Q9Y3R0; experiment: holdup assay; set-up: key: below the threshold = too weak to quantify, mostly under pKd 3.1 to 4; conditions: plain residues with an end cap or a label only (N-terminal biotin on a linker: ado-ado)

Question: Which pKd does the source give for B1 here?
Answer: The pKd was “below the threshold”.

target: T12, NHERF3_1, Q5T2W1; experiment: holdup assay; set-up: key: below the threshold = too weak to quantify, mostly under pKd 3.1 to 4; conditions: plain residues with an end cap or a label only (N-terminal biotin on a linker: ado-ado)

Question: How did the pKd turn out when B1 was run?
Answer: The pKd was 3.63.
